According to patent US6984373B2, “Fibrin binding moieties useful as imaging agents” (Dyax Corp., priority 2000, dated 2006):
* marks the point of attachment. HYNIC = NNc1ccc(C(=O)*)cn1

Tested on: human fibrin gel
Test: Gamma camera imaging of fibrin clot in rabbit femoral artery with 99mTc-labeled peptide
Assay type: in vivo
Details: tricine coligand
Procedure: Preliminary imaging experiments were performed with ^99mTc-labeled DX-328 using tricine as a coligand. A human fibrin gel was formed around a small wire placed in the femoral artery of a rabbit. The radiolabeled imaging agent was injected into the ear vein of the rabbit, and images were taken using a gamma camera.
The intensity of radioactivity in the pulmonary region is due to circulating imaging agent that has not yet cleared. By increasing the time between injection and imaging, the background in the pulmonary region and elsewhere should be reduced as the unbound imaging agent clears through the kidneys. Alternatively, the same effect could be achieved by decreasing the clearance time of the imaging agent. This could be accomplished by using EDDA as a coligand instead of tricine.

Ac-WQPCPWESWTFCWDPGGGK(HYNIC)-NH2 (not fully specified (bridges); cysteine pairing not given here; also: 99mTc/tricine complex) [DX-328, HYNIC-labeled peptide, used 99mTc-labeled with tricine coligand]
route of excretion of agent unbound to the clot (rabbit): renally excreted
visualisation of clot in left thigh versus clot-free right thigh (ear vein injection, human fibrin gel on wire in femoral artery): can clearly be seen
